From paper doi:10.1101/2024.01.16.575974, “Structural insights into peptidoglycan hydrolysis by the FtsEX system in Escherichia coli during cell division” (bioRxiv, 2024)

B2: Escherichia coli EnvC (EcoEnvCΔ34) (natural protein, UniProt P37690 35-419, looked up)
chain: DERDQLKSIQADIAAKERAVRQKQQQRASLLAQLKKQEEAISEATRKLRETQNTLNQLNKQIDEMNASIAKLEQQKAAQERSLAAQLDAAFRQGEHTGIQLILSGEESQRGQRLQAYFGYLNQARQETIAQLKQTREEVAMQRAELEEKQSEQQTLLYEQRAQQAKLTQALNERKKTLAGLESSIQQGQQQLSELRANESRLRNSIARAEAAAKARAEREAREAQAVRDRQKEATRKGTTYKPTESEKSLMSRTGGLGAPRGQAFWPVRGPTLHRYGEQLQGELRWKGMVIGASEGTEVKAIADGRVILADWLQGYGLVVVVEHGKGDMSLYGYNQSALVSVGSQVRAGQPIALVGSSGGQGRPSLYFEIRRQGQAVNPQPWLGR

Tests used:
[1] = biological target: the molecule itself; assay: cryo-EM structure; WT EcoFtsEX in peptidiscs, 3 mM ATPγS, 2 mM Mg2+, incubated 8 min at 37°C before freezing
[2] = biological target: B2; assay: cryo-EM structure; FtsE^E163QX in peptidiscs incubated with EnvC, 2 mM ATP-Mg2+, 8 min at 37°C before freezing; conditions: both partners purified
[3] = biological target: T1, Escherichia coli FtsEX complex (wild type) in peptidiscs (Escherichia coli (str. K-12, MG1655), UniProt P0A9R7 1-222; P0AC30 1-352); assay: cell-based or functional assay
T1 sequence (looked up) 1: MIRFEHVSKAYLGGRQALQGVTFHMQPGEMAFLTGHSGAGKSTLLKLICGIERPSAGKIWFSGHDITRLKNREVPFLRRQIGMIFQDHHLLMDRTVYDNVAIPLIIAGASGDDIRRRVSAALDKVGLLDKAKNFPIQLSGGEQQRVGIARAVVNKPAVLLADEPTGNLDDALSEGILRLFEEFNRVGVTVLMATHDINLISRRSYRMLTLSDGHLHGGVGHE
T1 sequence (looked up) 2: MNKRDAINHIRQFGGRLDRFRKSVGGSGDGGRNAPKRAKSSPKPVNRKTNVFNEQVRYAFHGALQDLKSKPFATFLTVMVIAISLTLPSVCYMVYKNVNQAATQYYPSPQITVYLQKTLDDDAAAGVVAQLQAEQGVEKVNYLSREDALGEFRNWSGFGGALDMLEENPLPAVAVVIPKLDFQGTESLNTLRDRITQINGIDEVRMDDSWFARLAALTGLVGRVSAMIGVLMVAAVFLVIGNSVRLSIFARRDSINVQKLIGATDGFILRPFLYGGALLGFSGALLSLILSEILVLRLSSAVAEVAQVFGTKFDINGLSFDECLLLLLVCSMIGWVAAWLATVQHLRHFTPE

[4] = biological target: the molecule itself; assay: cryo-EM structure; FtsE^E163QX in peptidiscs incubated with EnvC, 2 mM ATP-Mg2+, 8 min at 37°C before freezing

B1: Escherichia coli FtsX, full length (natural protein, Escherichia coli (str. K-12, MG1655), UniProt P0AC30 1-352, looked up)
chain: MNKRDAINHIRQFGGRLDRFRKSVGGSGDGGRNAPKRAKSSPKPVNRKTNVFNEQVRYAFHGALQDLKSKPFATFLTVMVIAISLTLPSVCYMVYKNVNQAATQYYPSPQITVYLQKTLDDDAAAGVVAQLQAEQGVEKVNYLSREDALGEFRNWSGFGGALDMLEENPLPAVAVVIPKLDFQGTESLNTLRDRITQINGIDEVRMDDSWFARLAALTGLVGRVSAMIGVLMVAAVFLVIGNSVRLSIFARRDSINVQKLIGATDGFILRPFLYGGALLGFSGALLSLILSEILVLRLSSAVAEVAQVFGTKFDINGLSFDECLLLLLVCSMIGWVAAWLATVQHLRHFTPE
notes: FtsX, Escherichia coli str; K-12 MG1655, full length; residues 1-52 not resolved in the maps; Two copies stand in the FtsEX complex; also called EcoFtsX; TMD
binding result [1]: binds
binding result [2]: binds

B2
fold increase of Vmax of ATP hydrolysis with EnvC over FtsEX alone [3]: ~2.2 fold

B3: Escherichia coli FtsE E163Q mutant, His-tagged (natural protein, Escherichia coli (str. K-12, MG1655), UniProt P0A9R7 1-222, looked up)
chain: MIRFEHVSKAYLGGRQALQGVTFHMQPGEMAFLTGHSGAGKSTLLKLICGIERPSAGKIWFSGHDITRLKNREVPFLRRQIGMIFQDHHLLMDRTVYDNVAIPLIIAGASGDDIRRRVSAALDKVGLLDKAKNFPIQLSGGEQQRVGIARAVVNKPAVLLADQPTGNLDDALSEGILRLFEEFNRVGVTVLMATHDINLISRRSYRMLTLSDGHLHGGVGHE
notes: FtsE, Escherichia coli str; K-12 MG1655, full length, with E163Q (cannot hydrolyse ATP); Made with the QuikChange kit on pTD68 [PT7::his6-FtsEX]; also called FtsE mutant (E163Q); ATPase mutant; source: E. coli BL21(DE3) pLysS, co-expressed with FtsX, purified (DDM, TALON, peptidiscs, SEC) with ATP; not shown: His6, N-terminal, kept
binding result [4]: binds
